± gives the uncertainty stated by the source.
Experiment: self-splicing fitness, log relative to wild type (ln ratio); higher = more splicing; Tetrahymena group I intron in knt gene, E. coli kanamycin selection, DiMSum; sequences stand for … in CUCUCU…GGAGGGAAAAGUUAUCAGGCAUGCACCUGGUAGCUAGUCUUUAAACCAAUAGAUUGCAUCGGUUUAAAAGGCAAGACCGUCAAAUUGCGGGAAAGGGGUCAACAGCCGUUCAGUACCAAGUCUCAGGGGAAACUUUGAGAUGGCCUUGCAAAGGGUAUGGUAAUAAGCUGACGGACAUGGUCCUAACCACGCAGCCAAGUCCUAAGUCAACAGAUCUUCUGUUGAUAUGGAUGCAGUUCACAGACUAAAUGUCGGUCGGGGAAGAUGUAUUCUUCUCAUAAGAUAUAGUCGGACCUCUCCUUAAUGGGAGCUAGCGGAUGAAGUGAUGCAACACUGGAGCCGCUGGGAACUAAUUUGUAUGCGAAAGUAUAUUGAUUAGUUUUGGAGUACUCGUGGUCG
Summary of the method: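 Colonies from six replicate transformations of E. coli BL21(DE3) were pooled and amplicon-sequenced on an Illumina HiSeq 2500. The library placed an intron with all eight P1ex-region nucleotides randomised inside the knt kanamycin-resistance gene on pET-22b(+), and cells grew overnight at 37°C or 30°C on LB agar with or without 25 μg/mL kanamycin (plus 100 μg/mL carbenicillin, 50 μM IPTG, 0.2% rhamnose). Fitness is the DiMSum error-weighted combination of wild-type-normalised replicate fold changes, kanamycin versus none.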

| Sequence | self-splicing fitness (ln) (30 °C) | self-splicing fitness (ln) (37 °C) |
| --- | --- | --- |
| UAUCAGCAAUAUUACGUCGU | -3.02 ± 0.12 | -1.6 ± 0.1 |
| UAUCAGCAAUAUUACGUGAA | -0.844 ± 0.083 | 0.371 ± 0.11 |
| UAUCAGCAAUAUUACGUGAG | 0.239 ± 0.054 | 0.101 ± 0.084 |
| UAUCAGCAAUAUUACGUGCG | -0.0936 ± 0.087 | 0.327 ± 0.11 |
| UAUCAGCAAUAUUACGUUUC | -2.67 ± 0.21 | -1.73 ± 0.22 |
| UAUGAGCAAUAUUACGAACG | -2.98 ± 0.19 | -1.13 ± 0.16 |
| UAUGAGCAAUAUUACGAAUC | – | -1.07 ± 0.26 |
| UAUGAGCAAUAUUACGAGAG | -2.42 ± 0.43 | -2.72 ± 0.38 |
| UAUGAGCAAUAUUACGCAAC | -2.22 ± 0.32 | -2.49 ± 0.44 |
| UAUGAGCAAUAUUACGCCGG | -1.7 ± 0.11 | -0.905 ± 0.19 |
| UAUGAGCAAUAUUACGCUUA | -3.19 ± 0.41 | -1.47 ± 0.26 |
| UAUGAGCAAUAUUACGGACC | -2.56 ± 0.41 | -2.43 ± 0.31 |
| UAUGAGCAAUAUUACGGCUA | -0.67 ± 0.14 | -1.16 ± 0.16 |
| UAUGAGCAAUAUUACGGUAC | -4.01 ± 0.43 | -2.66 ± 0.48 |
| UAUGAGCAAUAUUACGGUUC | -3.43 ± 0.19 | -3.82 ± 0.46 |
| UAUGAGCAAUAUUACGUAAG | – | -2.16 ± 0.19 |
| UAUGAGCAAUAUUACGUAAU | -2.35 ± 0.17 | -2.34 ± 0.35 |
| UAUGAGCAAUAUUACGUCCG | – | -2.19 ± 0.43 |
| UAUGAGCAAUAUUACGUCUG | -0.9 ± 0.13 | -0.416 ± 0.15 |
| UAUGAGCAAUAUUACGUGGU | – | -2.75 ± 0.31 |
| UAUGAGCAAUAUUACGUUGU | -4.16 ± 0.24 | -2.27 ± 0.18 |
| UAUUAGCAAUAUUACGAACC | -0.688 ± 0.36 | – |
| UAUUAGCAAUAUUACGACAA | -0.602 ± 0.17 | -0.127 ± 0.24 |
| UAUUAGCAAUAUUACGACCU | -1.41 ± 0.16 | -0.551 ± 0.15 |
| UAUUAGCAAUAUUACGAGCA | -0.606 ± 0.12 | -0.18 ± 0.17 |

| Sequence | self-splicing fitness (ln) (30 °C) | self-splicing fitness (ln) (37 °C) |
| --- | --- | --- |
| UAUUAGCAAUAUUACGAGGG | -3.12 ± 0.3 | -2.13 ± 0.3 |
| UAUUAGCAAUAUUACGAGUU | -2.88 ± 0.16 | -0.971 ± 0.15 |
| UAUUAGCAAUAUUACGCACU | -1.04 ± 0.19 | -1.12 ± 0.16 |
| UAUUAGCAAUAUUACGCAUU | -2.09 ± 0.15 | -1.48 ± 0.17 |
| UAUUAGCAAUAUUACGCCAU | – | -1.68 ± 0.21 |
| UAUUAGCAAUAUUACGCGAC | -3.03 ± 0.25 | -1.41 ± 0.24 |
| UAUUAGCAAUAUUACGCGUU | -3.05 ± 0.19 | -0.613 ± 0.15 |
| UAUUAGCAAUAUUACGCUGU | -2.57 ± 0.23 | 0.0696 ± 0.22 |
| UAUUAGCAAUAUUACGCUUU | -2.01 ± 0.16 | -0.435 ± 0.18 |
| UAUUAGCAAUAUUACGGAGC | -2.4 ± 0.42 | – |
| UAUUAGCAAUAUUACGUAUA | -1.6 ± 0.18 | -2.03 ± 0.21 |
| UAUUAGCAAUAUUACGUAUG | -1.65 ± 0.15 | -0.344 ± 0.17 |
| UAUUAGCAAUAUUACGUGCG | -0.929 ± 0.079 | -0.636 ± 0.12 |
| UAUUAGCAAUAUUACGUGUA | -1.21 ± 0.16 | -0.828 ± 0.16 |
| UAUUAGCAAUAUUACGUUCU | -2.64 ± 0.24 | -1.19 ± 0.17 |
| UCAAAGCAAUAUUACGAAAU | -2.52 ± 0.2 | -2.53 ± 0.27 |
| UCAAAGCAAUAUUACGAAUA | -1.92 ± 0.43 | -1.78 ± 0.3 |
| UCAAAGCAAUAUUACGACAC | -3.05 ± 0.48 | -1.97 ± 0.43 |
| UCAAAGCAAUAUUACGAGCU | -2.83 ± 0.23 | -1.38 ± 0.22 |
| UCAAAGCAAUAUUACGAGGA | -2.69 ± 0.15 | -0.561 ± 0.13 |
| UCAAAGCAAUAUUACGAGGC | – | -2.69 ± 0.3 |
| UCAAAGCAAUAUUACGAUAC | -3.34 ± 0.28 | -2.82 ± 0.28 |
| UCAAAGCAAUAUUACGAUAG | -0.853 ± 0.11 | -2.03 ± 0.15 |
| UCAAAGCAAUAUUACGAUGA | -0.6 ± 0.074 | -0.51 ± 0.084 |
| UCAAAGCAAUAUUACGCAUG | -1.44 ± 0.12 | -1.27 ± 0.14 |

| Sequence | self-splicing fitness (ln) (30 °C) | self-splicing fitness (ln) (37 °C) |
| --- | --- | --- |
| UCAAAGCAAUAUUACGCCUU | -3.63 ± 0.26 | -2.93 ± 0.28 |
| UCAAAGCAAUAUUACGGAAA | -2.64 ± 0.41 | -1.15 ± 0.19 |
| UCAAAGCAAUAUUACGGAGG | -3.48 ± 0.28 | -1.67 ± 0.21 |
| UCAAAGCAAUAUUACGGGGC | -2.18 ± 0.16 | -2.14 ± 0.19 |
| UCAAAGCAAUAUUACGGUAU | -4.12 ± 0.24 | -3.55 ± 0.29 |
| UCAAAGCAAUAUUACGUAAC | -3.86 ± 0.21 | -2.39 ± 0.27 |
| UCAAAGCAAUAUUACGUCCC | -0.356 ± 0.2 | -1.14 ± 0.47 |
| UCAAAGCAAUAUUACGUGGA | -1.49 ± 0.1 | -1.6 ± 0.11 |
| UCAAAGCAAUAUUACGUGUC | -3.25 ± 0.22 | -1.69 ± 0.19 |
| UCAAAGCAAUAUUACGUUCA | -0.821 ± 0.099 | -0.534 ± 0.11 |
| UCAAAGCAAUAUUACGUUGA | -3.43 ± 0.14 | -2.66 ± 0.18 |
| UCACAGCAAUAUUACGAAAU | -3.43 ± 0.37 | -0.587 ± 0.16 |
| UCACAGCAAUAUUACGACAU | -3.584 ± 0.02 | -2.19 ± 0.034 |
| UCACAGCAAUAUUACGACUG | -2.18 ± 0.098 | -0.964 ± 0.12 |
| UCACAGCAAUAUUACGAUAC | -3.87 ± 0.26 | -2.75 ± 0.35 |
| UCACAGCAAUAUUACGAUCG | -0.61 ± 0.08 | -0.076 ± 0.11 |
| UCACAGCAAUAUUACGCACG | -1.22 ± 0.091 | -0.319 ± 0.14 |
| UCACAGCAAUAUUACGCAUC | -4.21 ± 0.36 | -3.04 ± 0.4 |
| UCACAGCAAUAUUACGCCAU | -3.28 ± 0.19 | -2.22 ± 0.18 |
| UCACAGCAAUAUUACGCCCU | -3.66 ± 0.35 | -0.688 ± 0.2 |
| UCACAGCAAUAUUACGCCGA | -0.333 ± 0.1 | 0.184 ± 0.14 |
| UCACAGCAAUAUUACGCCGG | -0.748 ± 0.13 | 0.108 ± 0.13 |
| UCACAGCAAUAUUACGCCUU | -3.82 ± 0.37 | -2.71 ± 0.41 |
| UCACAGCAAUAUUACGCUCG | -1.15 ± 0.086 | 0.16 ± 0.1 |
| UCACAGCAAUAUUACGCUGA | -2.76 ± 0.18 | -1.54 ± 0.14 |

| Sequence | self-splicing fitness (ln) (30 °C) | self-splicing fitness (ln) (37 °C) |
| --- | --- | --- |
| UCACAGCAAUAUUACGGACA | -1.22 ± 0.099 | -0.687 ± 0.099 |
| UCACAGCAAUAUUACGGAGA | -1.48 ± 0.1 | -0.898 ± 0.11 |
| UCACAGCAAUAUUACGGCUC | -2.9 ± 0.22 | -1.87 ± 0.21 |
| UCACAGCAAUAUUACGGGAA | -1.98 ± 0.1 | -0.945 ± 0.089 |
| UCACAGCAAUAUUACGGGGU | -3.58 ± 0.14 | -2.67 ± 0.18 |
| UCACAGCAAUAUUACGGUCG | -0.0254 ± 0.054 | 0.119 ± 0.061 |
| UCACAGCAAUAUUACGUACG | -0.786 ± 0.093 | -0.747 ± 0.1 |
| UCACAGCAAUAUUACGUCCA | -0.951 ± 0.14 | -0.533 ± 0.14 |
| UCACAGCAAUAUUACGUCGG | -1.43 ± 0.077 | -0.796 ± 0.083 |
| UCACAGCAAUAUUACGUCUC | -3.42 ± 0.25 | -1.77 ± 0.2 |
| UCACAGCAAUAUUACGUGAC | -3.26 ± 0.12 | -2.5 ± 0.22 |
| UCACAGCAAUAUUACGUUGA | -2.56 ± 0.11 | -2.1 ± 0.11 |
| UCAGAGCAAUAUUACGAAGG | -2.15 ± 0.085 | -1.84 ± 0.12 |
| UCAGAGCAAUAUUACGAAUU | – | -2.24 ± 0.37 |
| UCAGAGCAAUAUUACGACCA | -2.73 ± 0.38 | -2.63 ± 0.47 |
| UCAGAGCAAUAUUACGACGA | -0.0796 ± 0.1 | -0.26 ± 0.11 |
| UCAGAGCAAUAUUACGACGC | – | -1.69 ± 0.4 |
| UCAGAGCAAUAUUACGACGU | -1.87 ± 0.2 | 0.0812 ± 0.17 |
| UCAGAGCAAUAUUACGAUUA | -1.18 ± 0.28 | – |
| UCAGAGCAAUAUUACGAUUU | -3.82 ± 0.3 | -1.67 ± 0.22 |
| UCAGAGCAAUAUUACGCCGG | -2.92 ± 0.24 | – |
| UCAGAGCAAUAUUACGCGUU | -4.72 ± 0.29 | -2.78 ± 0.21 |
| UCAGAGCAAUAUUACGGAGA | -2.08 ± 0.15 | -1.93 ± 0.17 |
| UCAGAGCAAUAUUACGGCAA | -2.43 ± 0.33 | – |
